According to patent publication US20140274800A1, “TRANSCRIPTION FACTOR DECOYS FOR THE TREATMENT AND PREVENTION OF INFECTIONS CAUSED BY BACTERIA INCLUDING CLOSTRIDIUM DIFFICILE” (PROCARTA BIOSYSTEMS LTD., priority 2013, published 2014):
Entries after “also recorded” stand apart in the source; their conditions may differ.

What was measured:
[1] = cited from earlier work
[2] = elevated salt, dilution, extended storage; cited from earlier work
C. difficile Strain 630 = assay: Bioassay to measure sporulation (spore and total cell CFU/ml); assay type: cell-based, Clostridium difficile
Experimental: All procedures were performed under anaerobic conditions at room temperature unless otherwise stated. All media and agar plates used were placed in an anaerobic chamber at least 24 hours prior to use. A standard bioassay to measure sporulation was performed using untreated cells, those mixed with nanoparticles consisting of either the Spo0A TFD or empty nanoparticles (containing no TFDs), to determine the effect on C. difficile Strain 630 (a laboratory reference strain that has been sequenced).
An initial overnight culture was generated by mixing 100 μl of a glycerol stock of C. difficile (consisting of spore cells of frozen in 10% glycerol and stored at −20° C.) with 10 ml Robertson's Cooked Meat Medium (Robertson (1916) J. Path. Bacteria 20: 327-349). The following day, 10 ml BHIS media (Brain Heart Infusion media, (McFaddin J. F. (1985) Media for Isolation-Cultivation-Identification-Maintenance of medical Bacteria, Vol. I, Williams and Wilkins, Baltimore) supplemented with 0.1% L-cysteine) was inoculated with 1% of the culture grown in Robertson's (consisting mostly of spore cells). […] 100 μl of this culture was used to inoculate 10 ml of BHIS which was allowed to grow until it had reached an OD600 of approximately 0.3. At this stage the growth is due to germination of spores and consists mainly of exponentially growing vegetative cells. This culture was then used to inoculate the experimental cultures that were performed in triplicate in 10 ml cultures in BHIS incubated at 37° C. The three conditions used were: A) untreated cells; B) treated with 1% (v/v) empty nanoparticles to give a final concentration of 8 μg/ml compound 7—12; C) nanoparticles loaded with Spo0A TFD to give final concentrations of 8 μg/ml compound 7—12 and 0.4 μg/ml TFD.
Aliquots were withdrawn from the cultures at TO, 24, 48, 72 and 96 h and used to calculate the total cell density and spore cell density.
Calculation of Spore Cell Density To measure the number of Colony Forming Units per ml of culture (CFU/ml) of spore cells, a 0.5 ml aliquot was withdrawn and exposed to anaerobic conditions for 25 minutes at 60° C. This heat shock step efficiently kills the vegetative cells but not the spores. A serial dilution of the treated sample was prepared in PBS buffer (Phosphate Buffered Saline) over a range of 10^−1 to 10^−6. 10 μl of each dilution was spotted in duplication onto BHIS plates supplemented with 0.1% taurocholate (which enhances germination), the spots allowed to dry and the plates incubated for 24 h at 37° C. The number of colonies was then counted and the CFU/ml of original culture calculated.
To measure CFU/ml of total cells, meaning vegetative cells plus spore cells, a 0.5 ml aliquot was withdrawn and exposed to anaerobic conditions for 25 minutes at room temperature (to control for the time taken to heat shock the spore sample). The samples were then processed as described above.

[3] = tested on: Toxins A and B (encoded by tcdAB) in C. difficile; assay: Premier ToxinA&B ELISA of toxin production; assay type: cell-based, Clostridium difficile; settings: FIG. 5
Experimental: A commercially available ELISA kit (Enzyme-Linked Immunosorbent Assay), Premier™ ToxinA&B, was obtained from Meridian Bioscience Inc. All assays were performed following manufacturers instructions.
(§1) Conditions of cell growth were as described in Example 1, with care being taken to ensure that the experimental culture consisted of early-exponential vegetative cells that would enter stationary phase during the course of the experiment. Toxin production is developmentally controlled and only beings to occur as cells enter this phase.
The absorbance of the cells was used to assay an equal amount of biomaterial in each experiment using the described ELISA kit. […] This was set at 100% activity and all other samples were compared to this (FIG. 5). […] At 48 h, where maximal production is expected, only 22% of the untreated level of production was achieved. The maximum level of production for the treated cells was 32% at 72 h.

C. difficile [4] = assay: Cell growth by Optical Density at 600 nm (Example 2); assay type: cell-based, Clostridium difficile; settings: OD 600 nm; FIG. 4
Experimental: as §1
Optical Density was measured at 600 nm in a standard spectrophotometer quantified cell growth.

C. difficile [5] = assay: Cell growth by Optical Density at 420 nm (Example 3); assay type: cell-based, Clostridium difficile; settings: absorbance 420 nm, over the time course; FIG. 6
Experimental: Optical Density was measured at 420 nm in a standard spectrophotometer quantified cell growth.

C. difficile [6] = assay: Minimum Inhibitory Concentration (MIC) method; settings: with reference to the compound 7—12 component; 24-well plates, 2 ml BHIS; 1 nM SigH TFD in the loaded nanoparticle; FIG. 7
Experimental: Growth was determined by the Minimum Inhibitory Concentration (MIC) method (Wiegand (2008) Nature Protocols 3: 163-175). Essentially, the antibiotic is diluted to the point where it is ineffective and is no longer able to prevent growth, as judged by the media remaining clear. For C. difficile, these experiments were performed in duplicate in 24-well cell plates containing 2 ml BHIS media with various concentrations of empty nanoparticles or those loaded with the SigH TFD.

In the case of `Nc1c2c([n+](CCCCCCCCCC[n+]3c4c(c(N)c5ccccc53)CCCC4)c3ccccc13)CCCC2.[Cl-].[Cl-]` [Compound 7, 10,10′-(decane-1,10-diyl)bis(9-amino-1,2,3,4-tetrahydroacridinium)dichloride], the “in vitro toxicity relative to dequalinium” value [1] is given as “lower toxicity in vitro compared to dequalinium; also recorded: less in vitro toxicity than dequalinium” and the “stability of complexes formed” value [2] is given as “forms more stable complexes”.

B1: Spo0A TFD: dumbbell TFD from Spo0ADB1/Spo0ADB2 with Spo0A binding site, delivered in compound 7—12 nanoparticles (nucleic acid)
chain 1: CTTGGTTTTTCCAAGAGCTTGTGTAGAAGGTTGTCCACAAGTTGTGAAATTTGTCGAAAAGCTATTTATC
chain 2: CCCTCTTTTTGAGGGGATAAATAGCTTTTCGACAAATTTCACAACTTGTGGACAACCTTCTACACAAGCT
modifications: dumbbell decoy delivered in nanoparticles, further chemistry not given here
With B1 the density of spores (C. difficile Strain 630; after heat shock 25 minutes at 60° C., 8 μg/ml compound 7—12 and 0.4 μg/ml TFD, FIG. 3) was 1.54×10^2 CFU/ml, the “effect on sporulation (in words)” value (C. difficile Strain 630; delivery to cells with nanoparticles, Example 1) was “strong inhibition of sporulation” and the “spores as percentage of total cells” value (C. difficile Strain 630; treated samples, FIG. 3) was < 8.66×10^−5%. The “reduction of sporulation relative to untreated culture” value (C. difficile Strain 630; treated versus untreated, FIG. 3) was “six-fold” and the “density of total cells” value (C. difficile Strain 630; vegetative cells plus spore cells, nanoparticles giving 8 μg/ml compound 7—12 and 0.4 μg/ml TFD, BHIS, 37° C., FIG. 3) was 1.78×10^8 CFU/ml.

B2: TcdR TFD: dumbbell TFD from TcdRDB1/TcdRDB2 with TcdR recognition site, delivered in compound 7—12 nanoparticles (nucleic acid)
chain 1: CTTGGTTTTTCCAAGAAGTTTACAAAATTATATTAGAATAACTTTTTATT
chain 2: CCCTCTTTTTGAGGGAATAAAAAGTTATTCTAATATAATTTTGTAAACTT
modifications: dumbbell, delivered in nanoparticles, chemistry not fully specified
notes: dumbbell TFD from TcdRDB1/TcdRDB2 with TcdR recognition site, delivered in compound 7—12 nanoparticles
With B2 the “toxin production, % of untreated level” value ([3]; at 48 h, untreated cells at 48 h set at 100%) was 22%, the “maximum level of toxin production, % of untreated 48 h level” value ([3]; at 72 h, untreated cells at 48 h set at 100%) was 32% and the “pattern of Toxins production (in words)” value ([3]; time course) was “produces much less of the Toxins”. The “cell growth (growth curves, in words)” value (C. difficile [4]) was “failed to grow in a manner similar to untreated cells”.

B3: FapR TFD: dumbbell TFD from FapRDB1/FapRDB2 with FapR recognition site, delivered in compound 7—12 nanoparticles (nucleic acid)
chain 1: CTTGGTTTTTCCAAGTAGAATTAGTACCTGATACTAATAATT
chain 2: GCCTCTTTTTGAGGCAATTATTAGTATCAGGTACTAATTCTA
modifications: nanoparticle delivery, chemistry not fully specified
notes: dumbbell TFD from FapRDB1/FapRDB2 with FapR recognition site, delivered in compound 7—12 nanoparticles
With B3 the “cell growth (growth curves, in words)” value (C. difficile [5]) was “failed to grow over the time course of the experiment”.

B4: SigH TFD: dumbbell TFD from SigH DB1/DB2 with binding sites for both Spo0A and SigH, delivered in compound 7—12 nanoparticles (nucleic acid)
chain 1: CTTGGTTTTTCCAAGTAATACGACAAACTAGTTAAATTTCATTGAAGGAATAAAAATATAATTATAGAATTGATTA
chain 2: GCCTCTTTTTGAGGCTAATCAATTCTATAATTATATTTTTATTCCTTCAATGAAATTTAACTAGTTTGTCGTATTA
modifications: dumbbell decoy delivered in nanoparticles, further chemistry not given here
With B4 the “effect on sporulation (in words)” value (C. difficile Strain 630; time course similar to Example 1, FIG. 8) was “block sporulation significantly” and the MIC (C. difficile [6]) was 3.4 nM.
